Results: patent US20180044404A1

Target: CD200 on FBL cells transduced with CD200 (CD200+ FBL)
Experiment: cell-based or functional assay

In the case of “CD200R-9aas-CD28Cys (murine construct V) (from UniProt Q9ES57 26-229; P31041 142-150; P31041 151-218)”, the accumulation of transduced T cells over multiple stimulations with irradiated CD200+ FBL is reported as 3 fold and the lysis of CD200+ FBL cells (CFSE-based cytotoxicity assay) is reported as over 40%.
